Measurements: paper PMC10086585

Target: recombinant human netrin‐1 (R&D), on HIS1K biosensors (human) (UniProt O95631)
Test: BLI; netrin-1 on HIS1K biosensors; m-Laminin-I at 3.12-100 nM; 30°C, 1,000 rpm; PBS, 0.02% Tween-20, 0.1% BSA; 5 min association, 5 min dissociation

mouse laminin‐I (complex)
Kd: 0.0295 µM
